Results on 132 substances are retold here after patent US20250011363A1, “OPTIMIZED SHORTENED PEPTIDE THAT BINDS TO ACETYLCHOLINE RECEPTOR, AND USE THEREOF” (SKINMED CO., LTD., priority 2021, published 2025).

The target of this assay is acetylcholine receptor (Homo sapiens, UniProt P02708). The assay can be described thus: SPR binding affinity (RU) of optimized 5mer/6mer/7mer peptides, Examples 6-7. In short, it runs like this: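 Response units from SPR give the binding values listed. Each synthesized peptide was run at 10 μM over the receptor.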
Where [1] appears, read: 6mer-1 Top sequence; SPR; peptides tested at 10 μM.
Setting [2] is: SPR, peptides tested at 10 μM; 6mer-1 Top sequence.

Chain of acetylcholine receptor (P02708 21-457): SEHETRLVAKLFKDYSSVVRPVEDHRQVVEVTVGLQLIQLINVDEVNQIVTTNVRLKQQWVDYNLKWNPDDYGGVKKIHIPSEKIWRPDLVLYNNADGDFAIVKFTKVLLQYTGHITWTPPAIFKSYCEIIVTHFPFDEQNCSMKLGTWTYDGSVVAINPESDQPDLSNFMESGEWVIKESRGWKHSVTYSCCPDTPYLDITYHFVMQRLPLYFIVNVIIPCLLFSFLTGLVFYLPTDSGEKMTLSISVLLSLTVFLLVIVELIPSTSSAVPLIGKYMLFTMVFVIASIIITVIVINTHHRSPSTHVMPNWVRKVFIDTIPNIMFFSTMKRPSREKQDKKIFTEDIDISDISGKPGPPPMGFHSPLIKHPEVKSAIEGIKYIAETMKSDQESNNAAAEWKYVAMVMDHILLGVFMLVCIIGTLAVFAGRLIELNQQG

As to 6mer-1-298 (KKLYCK), under setting [1], the Binding affinity is reported as 147 Ru.
The same measure, in the same setting: for 6mer-1-299 (KRWLSK) the value was 139 Ru.
On the same count and under the same terms, for 6mer-1-300 (RRWQQK) the value was 148 Ru; for 6mer-1-301 (RRSILR), 154 Ru.
The same measure, in the same setting: for 6mer-1-302 (RRGQSR) the value was 151 Ru.
6mer-1-303 (RKQYCK): under setting [1], the Binding affinity is 123 Ru.
On the same count and under the same terms, for 6mer-1-304 (RKLYSR) the value was 121 Ru.
Consider 6mer-1-305 (RKWISR), for which the Binding affinity under setting [1] is listed as 153 Ru.
The same measure, in the same setting: for 6mer-1-306 (KKLFYR) the value was 135 Ru; for 6mer-1-307 (KRWYRR), 153 Ru.
The same measure, in the same setting: under 6mer-1-308 (KRRITR) stands 135 Ru; under 6mer-1-309 (KKGICK), 153 Ru.
Same read-out and setting: under 6mer-1-310 (RKRQLK) stands 127 Ru; under 6mer-1-311 (RRGYQK), 127 Ru.
With 6mer-1-312 (KKSRQK), the Binding affinity under setting [1] came out at 151 Ru.
Same read-out and setting: for 6mer-1-313 (RRWFCK) the value was 148 Ru.
Same read-out and setting: under 6mer-1-314 (RRRILR) stands 141 Ru.
Still for that read-out and setting: for 6mer-1-315 (RKQQTK) the value was 128 Ru; for 6mer-1-316 (RKQIRK), 145 Ru; for 6mer-1-317 (KRSFRR), 148 Ru.
Regarding 6mer-1-318 (KKSRRK), the Binding affinity under setting [1] was found to be 145 Ru.
As to 6mer-1-319 (KRWVQK), under setting [1], the Binding affinity is 123 Ru.
Same read-out and setting: under 6mer-1-320 (KRVQYR) stands 121 Ru; under 6mer-1-321 (RKQVRR), 154 Ru; under 6mer-1-322 (KRGVQR), 146 Ru.
Turning to 6mer-1-323 (RRWLYR), the Binding affinity under setting [1] came out at 149 Ru.
Turning to 6mer-1-324 (RRLQRR), under setting [1], the Binding affinity was 128 Ru.
Same read-out and setting: under 6mer-1-325 (RRQIQR) stands 142 Ru.
Turning to 6mer-1-326 (RKWIYK), the Binding affinity under setting [1] is reported as 136 Ru.
The same measure, in the same setting: for 6mer-1-327 (KRGITR) the value was 139 Ru.
Same read-out and setting: for 6mer-1-328 (KRWLQK) the value was 151 Ru; for 6mer-1-329 (RKWRQK), 123 Ru; for 6mer-1-330 (RKVQRK), 148 Ru.
Regarding 6mer-1-331 (RKRITR), under setting [1], the Binding affinity amounted to 128 Ru.
The same measure, in the same setting: under 6mer-1-332 (KKRVQK) stands 122 Ru; under 6mer-1-333 (RKRQSR), 135 Ru; under 6mer-1-334 (RRRRLR), 154 Ru.
Same read-out and setting: for 6mer-1-335 (RRSQRR) the value was 148 Ru.
On the same count and under the same terms, under 6mer-1-336 (KRVVTK) stands 154 Ru; under 6mer-1-337 (RKSRRR), 144 Ru.
Consider 6mer-1-338 (KKQVLK), for which the Binding affinity under setting [1] amounted to 127 Ru.
Same read-out and setting: for 6mer-1-339 (KKSIQK) the value was 147 Ru.
Same read-out and setting: for 6mer-1-340 (KRLLCK) the value was 142 Ru; for 6mer-1-341 (RKQQQR), 128 Ru; for 6mer-1-342 (RKRFCR), 131 Ru.
The same measure, in the same setting: for 6mer-1-343 (KKLYTK) the value was 135 Ru.
6mer-1-344 (KKSQCR): the Binding affinity under setting [1] stood at 125 Ru.
For 6mer-1-345 (KKLLCR), the Binding affinity under setting [1] was 147 Ru.
On the same count and under the same terms, for 6mer-1-346 (KKRIYR) the value was 123 Ru; for 6mer-1-347 (KKQQSK), 126 Ru.
In the case of 6mer-1-348 (RKQRLK), the Binding affinity under setting [1] is on record as 142 Ru.
6mer-1-349 (KRLYSK): the Binding affinity under setting [1] worked out at 123 Ru.
Still for that read-out and setting: for 6mer-1-350 (KKLQTK) the value was 153 Ru; for 6mer-1-351 (RRGLRK), 141 Ru; for 6mer-1-352 (RKVFRK), 142 Ru.
Still for that read-out and setting: under 6mer-1-353 (KRLYLK) stands 126 Ru; under 6mer-1-354 (KKVFLK), 153 Ru; under 6mer-1-355 (RKVFYR), 148 Ru.
The same measure, in the same setting: for 6mer-1-356 (KRGYSK) the value was 153 Ru; for 6mer-1-357 (KRRQTR), 148 Ru; for 6mer-1-358 (KRRYTR), 124 Ru.
As for 6mer-1-359 (KRQFLR), under setting [1], the Binding affinity amounted to 131 Ru.
As for 6mer-1-360 (KRVFLK), under setting [1], the Binding affinity amounted to 148 Ru.
On the same count and under the same terms, under 6mer-1-361 (RKSVQR) stands 127 Ru.
On the same count and under the same terms, for 6mer-1-362 (KRVVYK) the value was 133 Ru; for 6mer-1-363 (KRQIRR), 121 Ru; for 6mer-1-364 (RKRQSK), 124 Ru.
Same read-out and setting: for 6mer-1-365 (KKRICK) the value was 142 Ru; for 6mer-1-366 (KRWFCR), 133 Ru.
Take 6mer-1-367 (RKGFSK): the Binding affinity under setting [1] turned out to be 154 Ru.
On the same count and under the same terms, for 6mer-1-368 (RRRFSK) the value was 145 Ru; for 6mer-1-369 (KKWYRK), 144 Ru; for 6mer-1-370 (RKQLYK), 142 Ru.
With 6mer-1-371 (KRSLTR), under setting [1], the Binding affinity is 153 Ru.
On the same count and under the same terms, under 6mer-1-372 (RKLRSK) stands 145 Ru; under 6mer-1-373 (KRGVLK), 149 Ru; under 6mer-1-374 (KKQFQK), 148 Ru.
Still for that read-out and setting: for 6mer-1-375 (RRVFYR) the value was 154 Ru.
Same read-out and setting: for 6mer-1-376 (RRQLRK) the value was 121 Ru; for 6mer-1-377 (KRWITR), 148 Ru; for 6mer-1-378 (KRSLQK), 153 Ru.
As to 6mer-1-379 (KRRISK), under setting [1], the Binding affinity is listed as 153 Ru.
On the same count and under the same terms, under 6mer-1-380 (KRLQLR) stands 121 Ru; under 6mer-1-381 (RKGFYR), 124 Ru; under 6mer-1-382 (KRQYTR), 139 Ru.
For the substance 6mer-1-383 (RKRRTK), the Binding affinity under setting [1] is recorded as 148 Ru.
In the case of 6mer-1-384 (RKVICK), the Binding affinity under setting [1] was found to be 148 Ru.
Consider 6mer-1-385 (KRQVLR), for which the Binding affinity under setting [1] is given as 127 Ru.
The same measure, in the same setting: for 6mer-1-386 (RRSYQK) the value was 127 Ru; for 6mer-1-387 (KKGRLR), 148 Ru; for 6mer-1-388 (RRLLQR), 142 Ru.
Still for that read-out and setting: for 6mer-1-389 (RKLFCK) the value was 125 Ru; for 6mer-1-390 (RKLQQR), 121 Ru; for 6mer-1-391 (RRQRCK), 131 Ru.
On the same count and under the same terms, under 6mer-1-392 (RRVQTR) stands 135 Ru; under 6mer-1-393 (KRLYYK), 148 Ru.
With 6mer-1-394 (KKVRRR), the Binding affinity under setting [1] worked out at 149 Ru.
On the same count and under the same terms, under 6mer-1-395 (KKRQTK) stands 125 Ru.
The same measure, in the same setting: under 6mer-1-396 (KRQIQK) stands 148 Ru; under 6mer-1-397 (KRLILR), 125 Ru.
Take 6mer-1-398 (KKQYYR): the Binding affinity under setting [1] is recorded as 137 Ru.
In the case of 6mer-1-399 (KRWILR), the Binding affinity under setting [1] is 125 Ru.
Same read-out and setting: for 6mer-1-400 (KRWQTK) the value was 123 Ru; for 6mer-1-401 (RRLYCR), 127 Ru; for 6mer-1-402 (RRRVLR), 153 Ru.
Take 6mer-1-403 (KRSQTK): the Binding affinity under setting [2] is reported as 153 Ru.
On the same count and under the same terms, under 6mer-1-404 (KKQRQK) stands 137 Ru; under 6mer-1-406 (RKVLLR), 153 Ru.
The same measure, in the same setting: for 6mer-1-407 (KRLRTR) the value was 153 Ru; for 6mer-1-408 (KRGRSR), 147 Ru.
Take 6mer-1-409 (RRWISR): the Binding affinity under setting [2] is listed as 144 Ru.
Take 6mer-1-410 (KRVLRK): the Binding affinity under setting [2] came to 148 Ru.
Same read-out and setting: for 6mer-1-411 (RRQRSR) the value was 121 Ru; for 6mer-1-412 (RKSILK), 139 Ru; for 6mer-1-413 (RKQFCR), 148 Ru.
Take 6mer-1-414 (KRSFLR): the Binding affinity under setting [2] is listed as 153 Ru.
As for 6mer-1-415 (RRGVCR), the Binding affinity under setting [2] turned out to be 135 Ru.
The same measure, in the same setting: for 6mer-1-416 (RKLIYR) the value was 153 Ru; for 6mer-1-417 (RKSVCK), 139 Ru; for 6mer-1-418 (RRQVRK), 123 Ru.
Still for that read-out and setting: under 6mer-1-419 (KRGFYR) stands 148 Ru; under 6mer-1-420 (KKGQYK), 148 Ru.
Still for that read-out and setting: under 6mer-1-421 (RKVLYR) stands 135 Ru; under 6mer-1-422 (KRVRQR), 154 Ru.
Turning to 6mer-1-423 (RRGYCK), the Binding affinity under setting [2] was 147 Ru.
The same measure, in the same setting: for 6mer-1-424 (RRRIYR) the value was 135 Ru; for 6mer-1-425 (RKGVQK), 131 Ru.
The same measure, in the same setting: for 6mer-1-426 (KKGQYR) the value was 131 Ru; for 6mer-1-427 (KRWVLR), 147 Ru; for 6mer-1-428 (KRVVLR), 139 Ru.
On the same count and under the same terms, under 6mer-1-429 (RRQRRK) stands 135 Ru; under 6mer-1-430 (KKQLQK), 144 Ru.
